Measurements as given in US20230183177A1, “ENANTIOSELECTIVE CHEMO-ENZYMATIC SYNTHESIS OF OPTICALLY ACTIVE AMINO AMIDE COMPOUNDS” (priority 2020, published 2023).

What was measured:
[1] = Substrate stability experiments: decomposition of rac-1 at different pH (Feigl-Anger paper, HPLC); format: physicochemical
Protocol: . In addition, the substrate was dissolved in ethanol as control. 100 μL of the rac-1 solutions were pipetted into a 96-well micro titer plate and covered with Feigl-Anger filter paper. Color development was documented by taking pictures (see FIG. 3).
To investigate the velocity of rac-1 decomposition at different pH, rac-1 was dissolved in different buffer, ranging from pH 5 to pH 10, and extracted immediately, after 2 and after 60 min, respectively, with 1 volume ethyl acetate. Extracts were dried over Na2SO4 and the supernatant evaporated using a vacuum centrifuge. The remaining substances (including rac-1) were dissolved in 100 μL of ethanol.
(R)- and (S)-1 were separated by a Chiralpak AD-H using n-heptane and ethanol in a ratio 90:10 as the mobile phase, at a flow rate of 1 mL/min for 8 min. The compounds were detected at 210 nm (DAD). Retention times of (R)- and (S)-1 were 4.2 min and 4.7 min, respectively.

[2] = Biocatalytic conversions with target substrate rac-1 by NHase-CFE or cells, chiral HPLC analysis; format: biochemical; conditions: for conversion / e.e. for (S): bioconversion of 100 mM rac-1; for conversion [%]: 300 rpm overnight; for eeP [%]: excess of (S); for Conv. [%]: NHase-CFE, overnight

For `CCC(C#N)N1CCCC1` (racemic) [rac-1, 2-(Pyrrolidin-1-yl)butanenitrile], the “Percent (HPLC peak area vs zero value)” value ([1]; pH 5, 2 min) was 57%, the “Percent (HPLC peak area vs zero value)” value ([1]; pH 5, 1 hour) was 32% and the “Percent (HPLC peak area vs zero value)” value ([1]; pH 6, 2 min) was 54%. The “Percent (HPLC peak area vs zero value)” value ([1]; pH 6, 1 hour) was 23%, the “Percent (HPLC peak area vs zero value)” value ([1]; pH 6.5, 2 min) was 47% and the “Percent (HPLC peak area vs zero value)” value ([1]; pH 6.5, 1 hour) was 22%. For the same molecule, the “Percent (HPLC peak area vs zero value)” value ([1]; pH 7, 2 min) was 57%, the “Percent (HPLC peak area vs zero value)” value ([1]; pH 7, 1 hour) was 44% and the “Percent (HPLC peak area vs zero value)” value ([1]; pH 7.5, 2 min) was 66%. The “Percent (HPLC peak area vs zero value)” value ([1]; pH 7.5, 1 hour) was 50%, the “Percent (HPLC peak area vs zero value)” value ([1]; pH 9, 2 min) was 83% and the “Percent (HPLC peak area vs zero value)” value ([1]; pH 9, 1 hour) was 87%. For the same molecule, the “Percent (HPLC peak area vs zero value)” value ([1]; pH 10, 2 min) was 78%, the “Percent (HPLC peak area vs zero value)” value ([1]; pH 10, 1 hour) was 86% and the conversion [2] was 29.3%. The “e.e. for (S)” value [2] was 92.8%.

In the case of `CC[C@@H](C(N)=O)N1CCCC1=O` [compound 4, (S)-2-(2-oxopyrrolidin-1-yl)butane amide, reference compound], the conversion [2] is reported as 51.8% and the “e.e. for (S)” value [2] is reported as 92.1%.

B1: KoNHase: nitrile hydratase from Klebsiella oxytoca (protein, listed as Klebsiella oxytoca)
alpha: MSHKHDHDHTHPPVDIELRVRALESLLQEKGLIDPAALDELIDTYEHKVGPRNGAQVVARAWSDPEYKRRLMENATAAIAELGFSGIQGEDMLVVENTPDVHNVTVCTLCSCYPWPVLGLPPVWYKSAPYRSRIVIDPRGVLAEFGLHIPENKEIRVWDSSAELRYLVLPERPAGTEGWSEAQLSELITRDSMIGTGVVSAP
beta: MNGIHDLGGMHGLGPIPTEENEPYFHHEWERRVFPLFASLFVGGHFNVDEFRHAIERMAPTEYLQSSYYEHWLHAFETLLLAKGAITVEELWGGAKPAPCKPGTPVLTQEMVSMVVSTGGSARVSHDVAPRFRVGDWVRTKNFNPTTHTRLPRYARDKVGRIEIAHGVFITPDTAAHGLGEHPQHVYSVSFTAQALWGEPRPDKVFIDLWDDYLEEA
For B1, the “enantioselectivity for (S)-2” value [2] was 78%, the “conversion [%]” value ([2]; Table 4: 10 mM rac-1, NHase-CFE, 500 μL, pH 7.2, 25° C.) was 5.3% and the “conversion [%]” value ([2]; Table 5: 10 mM rac-1, NHase-CFE, pH 7.2, 37° C.) was 4.4%. For the same molecule, the “conversion [%]” value ([2]; Table 5: 10 mM rac-1, NHase-CFE, pH 7.2, 50° C.) was 3.8%, the “eeP [%]” value ([2]; Table 5: 37° C., —^a: only (S)-amide was detected) was 83 (S) % and the “eeP [%]” value ([2]; Table 5: 50° C., —^a: only (S)-amide was detected) was 78 (S) %. For the same molecule, the “Conv. [%]” value ([2]; Table 6: 10 mM substrate, 25° C., pH 7.2) was 5.3%, the “eeP [%]” value ([2]; Table 6: 10 mM substrate) was 79 (S) % and the “Conv. [%]” value ([2]; Table 6: 50 mM substrate, 25° C., pH 7.2) was 6.2%. The “eeP [%]” value ([2]; Table 6: 50 mM substrate) was 79 (S) %, the “Conv. [%]” value ([2]; Table 6: 100 mM substrate, 25° C., pH 7.2) was 2.6% and the “eeP [%]” value ([2]; Table 6: 100 mM substrate) was 75 (S) %. The “Enantioselectivity eeP [%]” value ([2]; pH 7.2) was 79 (S) %, the “enantiomeric excess of the product for (S)-2” value ([2]; time study: 20 mM substrate, CFE, 25° C., pH 7.2) was 81% and the “activity after cobalt pre-incubation” value (1 or 2 mM CoCl2, 2 h, 25° C.) was “lower activity than the control reaction”. For the same molecule, the “activity towards methacrylonitrile (MAN) hydrolysis” value (NHase-CFE, 114 mM substrate, pH 7.2, 25° C.) was “high activity”, the “stability after longer incubation at high pH” value (incubated at pH 9 or 9.5, 25° C., then MAN assay) was “loses activity with time at pH 9.5” and the “activity at high pH” value (methacrylonitrile hydration, carbonate buffer pH 10) was “still active at pH 10”. The “thermal stability at 37° C.” value (pH 8) was “seem stable”.
